From US20100015126A1, “Methods of Binding of Cross-Beta Structures By Chaperones” (priority 2006, published 2010)

Experiments:
human BiP [1] = biological target: T1, human BiP (Homo sapiens, UniProt P11021); test: Competition ELISA: BiP binding to misfolded proteins under influence of crossbeta binding compounds; details: fixed sub-optimal BiP concentration
T1 construct: The human BiP gene except the signal peptide encoding region was obtained from Geneart (Germany); linker […]; made in house; host or cells: HEK 293E cells, transient transfection, PABC674 vector; secreted into the medium
T1 sequence (P11021 19-654): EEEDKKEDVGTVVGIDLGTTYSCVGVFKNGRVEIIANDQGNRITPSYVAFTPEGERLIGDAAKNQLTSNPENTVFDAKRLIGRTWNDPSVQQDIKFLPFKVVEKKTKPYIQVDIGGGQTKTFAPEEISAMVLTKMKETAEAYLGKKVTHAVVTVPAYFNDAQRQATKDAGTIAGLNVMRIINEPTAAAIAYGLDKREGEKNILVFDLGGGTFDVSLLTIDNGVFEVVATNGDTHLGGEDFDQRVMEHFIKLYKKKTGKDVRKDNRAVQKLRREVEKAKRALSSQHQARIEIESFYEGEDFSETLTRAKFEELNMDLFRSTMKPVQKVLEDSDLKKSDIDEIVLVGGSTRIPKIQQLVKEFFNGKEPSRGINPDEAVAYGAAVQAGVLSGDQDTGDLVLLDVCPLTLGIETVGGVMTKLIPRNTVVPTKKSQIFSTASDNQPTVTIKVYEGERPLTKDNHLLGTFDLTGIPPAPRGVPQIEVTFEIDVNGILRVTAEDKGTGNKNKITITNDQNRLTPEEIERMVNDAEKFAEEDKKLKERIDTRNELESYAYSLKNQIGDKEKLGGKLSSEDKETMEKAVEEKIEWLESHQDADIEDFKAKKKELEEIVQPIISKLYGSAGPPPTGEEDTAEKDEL
Description: Binding of chaperones to immobilized (misfolded) protein ligands was determined using an enzyme linked immuno sorbent assay (ELISA) approach. For this purpose 50 μl/well of potential ligands at indicated concentrations or coat buffer only for control and background measurement purposes, were coated overnight at 4° C. or coated for 1 h at room temperature, with motion, in 50 mM NaHCO3 pH 9.6 (coat buffer). In general, ligands were coated at 5 μg/ml, unless stated otherwise. For example, BiP binding peptides 6BB# and oxLDL were coated at 50 μg/ml. Native haemoglobin (Sigma-Aldrich, H7379), albumin, IgIV Gammagard and ovalbumin controls were prepared from lyophilized stocks. The controls were prepared by dissolving lyophilized proteins at 1 mg/ml in PBS upon resuspending by pipetting, followed by a 30 minutes period at the roller device, at room temperature. The protein solutions were centrifuged for 10 minutes at 16,000*g and diluted in coat buffer. After coating the plates were washed at least three times with 50 mM Tris-HCl pH 7.3, 150 mM NaCl, 0.1% v/v Tween20, and blocked with Blocking reagent (Roche Diagnostics, Almere, The Netherlands; 11112589001), for 1 h at room temperature, with motion. Plates were washed three times and incubated in triplicate with indicated chaperone dilution series, at 50 μl/well, for 1 h at room temperature, with constant motion. For HSP90, 5 mM DTT is incorporated in the binding buffer (PBS/0.1% Tween20) to avoid unwanted disulfide bond formation of the HSP90. […] After four wash cycles, secondary antibodies were added to the wells when required, 50 μl/well, for 45′ at room temperature, with motion. RAMPO and SWARPO were used at 3000 times dilution. […] In a second experiment with more immobilized misfolded proteins and controls, the detection of bound HSP90 with the mix of two anti-HSP90 antibodies was achieved by mixing 1:1500 SWARPO with 1:3000 RAMPO. After 5 washes with wash buffer followed by two washes with PBS, binding of antibodies was assessed. Bound anti-FLAG-PO, peroxidase-conjugated rabbit anti-mouse immunoglobulins (RAMPO, P0260, DAKOCytomation, Glostrup, Denmark) or peroxidase-coupled swine anti-rabbit immunoglobulins (SWARPO, P0217, DAKOCytomation) was visualized with tetramethylbenzidine (TMB, #45.01.20,/#45.014.01, Biosource, Nivelles, Belgium). The reaction was stopped after 5 minutes with 1% H2SO4 in H2O. Plates were read at 450 nm. Triplicates were averaged and standard deviations calculated. Background signals obtained with buffer-coated wells were subtracted (binding of primary antibody to empty wells), as well as background signals obtained with ligand-coated wells in which the chaperones were omitted (binding of primary and secondary antibody to coated ligands). Subsequently, sub-optimal concentrations of chaperones for binding to misfolded protein ligands are determined, and these concentrations are used for inhibition studies.
In a subsequent study we analysed whether BiP interacts directly with the crossbeta structure, by performing ELISA binding studies with a fixed sub-optimal concentration of BiP and concentration series of crossbeta binding compounds. The results are depicted in FIGS. 12, 13 and Table 7. Binding of BiP without added crossbeta binding compounds was set to 100%.

[2] = Transmission electron microscopy (TEM); type: physicochemical; details: 2.5 mg/ml peptide stocks
Description: Transmission Electron Microscopy (TEM)
TEM images were collected using a Jeol 1200 EX transmission electron microscope (Jeol Ltd., Tokyo, Japan) at an excitation voltage of 80 kV. For each sample, the formvar and carbon-coated side of a 100-mesh copper or nickel grid was positioned on a 5 μl drop of protein solution for 5 minutes. Afterwards, it was positioned on a 100 μl drop of PBS for 2 minutes, followed by three 2-minute incubations with a 100 μl drop of distilled water. The grids were then stained for 2 minutes with a 100 μl drop of 2% (m/v) methylcellulose with 0.4% uranyl acetate pH 4. Excess fluid was removed by streaking the side of the grids over filter paper, and the grids were subsequently dried under a lamp. Samples were analysed at a magnification of 10K.

[3] = biological target: T2, Escherichia coli HSP70 family member DnaK (Escherichia coli, UniProt P0A6Y8); test: ELISA: binding of DnaK to immobilized (misfolded) protein ligands
T2 construct: purchased Stressgen (Ann Arbor, Mich., USA) SPP-630
T2 sequence (P0A6Y8 whole entry): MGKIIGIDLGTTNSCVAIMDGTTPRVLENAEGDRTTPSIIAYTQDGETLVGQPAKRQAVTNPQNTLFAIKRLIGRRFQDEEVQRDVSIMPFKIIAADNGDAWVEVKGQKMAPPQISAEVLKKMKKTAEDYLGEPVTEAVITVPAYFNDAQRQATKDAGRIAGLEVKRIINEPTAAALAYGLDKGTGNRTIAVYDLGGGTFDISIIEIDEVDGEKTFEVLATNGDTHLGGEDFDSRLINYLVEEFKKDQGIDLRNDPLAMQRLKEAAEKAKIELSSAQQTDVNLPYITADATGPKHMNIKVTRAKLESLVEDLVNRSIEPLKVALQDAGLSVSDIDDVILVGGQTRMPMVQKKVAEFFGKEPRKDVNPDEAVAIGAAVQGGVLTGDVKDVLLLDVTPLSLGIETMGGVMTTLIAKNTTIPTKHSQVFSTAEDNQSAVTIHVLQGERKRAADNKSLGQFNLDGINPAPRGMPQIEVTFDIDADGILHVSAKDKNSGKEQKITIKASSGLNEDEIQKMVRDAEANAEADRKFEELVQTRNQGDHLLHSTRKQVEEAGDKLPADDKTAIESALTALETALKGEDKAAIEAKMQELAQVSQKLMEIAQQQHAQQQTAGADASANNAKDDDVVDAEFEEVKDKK
Description: Recombinant Escherichia coli (E. coli) DnaK was purchased from Stressgen (Ann Arbor, Mich., USA; SPP-630). For the binding studies first lot B502468 (100 μg, lot A) and then lot 05240609 (200 μg, lot B) was used.
(§1) Binding of chaperones to immobilized (misfolded) protein ligands was determined using an enzyme linked immuno sorbent assay (ELISA) approach. For this purpose 50 μl/well of potential ligands at indicated concentrations or coat buffer only for control and background measurement purposes, were coated overnight at 4° C. or coated for 1 h at room temperature, with motion, in 50 mM NaHCO3 pH 9.6 (coat buffer). In general, ligands were coated at 5 μg/ml, unless stated otherwise. For example, BiP binding peptides 6BB# and oxLDL were coated at 50 μg/ml. Native haemoglobin (Sigma-Aldrich, H7379), albumin, IgIV Gammagard and ovalbumin controls were prepared from lyophilized stocks. The controls were prepared by dissolving lyophilized proteins at 1 mg/ml in PBS upon resuspending by pipetting, followed by a 30 minutes period at the roller device, at room temperature. The protein solutions were centrifuged for 10 minutes at 16,000*g and diluted in coat buffer. After coating the plates were washed at least three times with 50 mM Tris-HCl pH 7.3, 150 mM NaCl, 0.1% v/v Tween20, and blocked with Blocking reagent (Roche Diagnostics, Almere, The Netherlands; 11112589001), for 1 h at room temperature, with motion. Plates were washed three times and incubated in triplicate with indicated chaperone dilution series, at 50 μl/well, for 1 h at room temperature, with constant motion. For HSP90, 5 mM DTT is incorporated in the binding buffer (PBS/0.1% Tween20) to avoid unwanted disulfide bond formation of the HSP90. Plates were washed three times and incubated with anti-FLAG antibody (mouse antibody, M2, peroxidase conjugate; Sigma, A-8592) for BiP-FLAG-His, anti-His-tag antibody (Mouse Monoclonal Antibody, Cat. No. 70796, Novagen [0.2 mg/ml]) for HSP60, a 1:1 mix of 500-fold diluted anti-HSP90beta antibodies (Stressgen, SPA-643 [mouse monoclonal IgM], SPA-646 [rabbit polyclonal]) for HSP90 and an anti-DnaK antibody (Stressgen, 023SPA-880D [mouse monoclonal antibody]) for DnaK. After four wash cycles, secondary antibodies were added to the wells when required, 50 μl/well, for 45′ at room temperature, with motion. RAMPO and SWARPO were used at 3000 times dilution. […] In a second experiment with more immobilized misfolded proteins and controls, the detection of bound HSP90 with the mix of two anti-HSP90 antibodies was achieved by mixing 1:1500 SWARPO with 1:3000 RAMPO. After 5 washes with wash buffer followed by two washes with PBS, binding of antibodies was assessed. Bound anti-FLAG-PO, peroxidase-conjugated rabbit anti-mouse immunoglobulins (RAMPO, P0260, DAKOCytomation, Glostrup, Denmark) or peroxidase-coupled swine anti-rabbit immunoglobulins (SWARPO, P0217, DAKOCytomation) was visualized with tetramethylbenzidine (TMB, #45.01.20,/#45.014.01, Biosource, Nivelles, Belgium). The reaction was stopped after 5 minutes with 1% H2SO4 in H2O. Plates were read at 450 nm. Triplicates were averaged and standard deviations calculated. Background signals obtained with buffer-coated wells were subtracted (binding of primary antibody to empty wells), as well as background signals obtained with ligand-coated wells in which the chaperones were omitted (binding of primary and secondary antibody to coated ligands). Subsequently, sub-optimal concentrations of chaperones for binding to misfolded protein ligands are determined, and these concentrations are used for inhibition studies. […] We have previously identified that a sub-fraction of IgIV molecules has affinity for misfolded proteins comprising crossbeta structure (pending patent application). Moreover, we identified that the sub-fraction of IgIV molecules directly binds to crossbeta structure and/or crossbeta structure induced conformation (not shown; pending patent application). […]

human BiP [4] = biological target: T1, human BiP; test: ELISA: binding of BiP-FLAG-His to immobilized (misfolded) protein ligands; details: ligands coated at 5 μg/ml; 6BB peptides and oxLDL 50 μg/ml
Description: Enzyme Linked Immunosorbent Assay for Testing of Chaperone Binding to Misfolded Proteins
as §1

human BiP [5] = biological target: T1, human BiP; test: ELISA: binding of BiP in cell culture supernatant to immobilized misfolded proteins; details: undiluted supernatant of 293E cells overexpressing BiP; ligands coated at 5 μg/ml, Aβ 20 μg/ml
Description: Binding of BiP to Misfolded Proteins with Crossbeta Structure
Proteins at 5 μg/ml were coated for 1 h at room temperature with agitation, in Microlon high-binding ELISA plates (Greiner) in 50 mM NaHCO3 pH 9.6, except for Aβ that was coated at 20 μg/ml. Buffer was coated as negative control. A twofold dilutions series of cell culture supernatant of HEK 293E cells overexpressing BiP was also coated to the plate for anti-FLAG-tag antibody control purposes. Plates were washed and blocked with ½*Blocking reagent (Roche). Undiluted cell culture supernatant enriched with 0.1% Tween20 was added to the wells with immobilized protein ligands and incubated for 1 h at room temperature with agitation. Medium was discarded and the plate was washed with PBS with 0.1% v/v Tween20. Mouse monoclonal anti-FLAG-tag antibody (Sigma, A8592, anti-FLAG M2PO conjugate) was diluted 1000× in PBS/0.1% Tween20 and added to all wells, including those that are coated with cell culture supernatant. After a 1 h incubation at room temperature with agitation and after washing, wells were overlayed with 3000× diluted RAMPO (DAKOCytomation) in PBS/0.1% Tween20. After 30 minutes the plate was washed and bound peroxidase was visualised with tetramethylbenzidine (TMB, #45.103.20/#45.014.01, Biosource, Nivelles, Belgium). The reaction was stopped after 5 minutes with 10% H2SO4 in H2O. Plates were read at 450 nm.

## HWDFAWPW [6BB10]
Human BiP [1]; concentration series of Congo red
  Influence of Congo red on interaction of BiP with misfolded protein: ↓ (a ↓ sign refers to inhibited abolished binding of BiP)
Human BiP [1]; concentration series of ThS
  Influence of ThS on interaction of BiP with misfolded protein: ↓ (a ↓ sign refers to inhibited abolished binding of BiP)
Human BiP [1]; concentration series of ThT
  Influence of ThT on interaction of BiP with misfolded protein: ↓ (a ↓ sign refers to inhibited abolished binding of BiP)
[2]
  TEM: Nothing visible^†
[3]
  Binding of concentration series of DnaK to coated ligand: did not bind
Human BiP [4]
  Binding of concentration series of BiP to coated ligand: has been established

## d-lysozyme: heat-denatured hen egg-white lysozyme
Human BiP [5]
  Binding of BiP to immobilized protein (ELISA): more pronounced
